In the Immune Epitope Database (IEDB) one finds Kd and IC50 data, which are given here for 19 sequences.

One experiment concerns the target HLA-B*35:01. The experiment can be described thus: IEDB peptide-MHC binding, purified MHC/competitive/radioactivity; filed as Kd, often an IC50 or EC50 that approximates it; ≥ and ≤ were set here for values at or beyond the usual limits of such assays. The conditions noted are these: source organism: Dengue virus 2 Jamaica/1409/1983.
Another experiment has as its target HLA-B*18:01. The description is as above.
Experiment [1] deals with HLA-B*40:01. The experiment is described as above.
For a further experiment, the target named is HLA-B*40:02. Described as above.
Experiment [2] concerns the target HLA-B*44:02. The experiment is described as above.
In another experiment the target is HLA-B*44:03. Described as above.
The next experiment concerns the target HLA-B*45:01. The experiment is described as above.
For the next experiment, the target named is HLA-B*51:01. Described as above.
The target of a further experiment is HLA-A*01:01. The experiment can be described thus: IEDB peptide-MHC binding, purified MHC/direct/fluorescence; filed as Kd, often an IC50 or EC50 that approximates it; ≥ and ≤ were set here for values at or beyond the usual limits of such assays.
In experiment [3] the target is HLA-A*03:01. The experiment is described as above.
For experiment [4], the target named is HLA-A*11:01. Described as above.
The target in experiment [5] is HLA-A*26:01. Described as above.
The next experiment concerns the target HLA-A*31:01. The experiment is described as above.
A further experiment addresses HLA-A*69:01. Described as above.
The target of experiment [6] is HLA-B*07:02. The description is as above.
A further experiment deals with HLA-B*08:01. The description is as above.
Experiment [7] deals with HLA-B*15:01. The experiment is described as above.
In another experiment the target is HLA-B*27:05. The experiment is described as above.
The target of experiment [8] is HLA-B*40:01. The experiment is described as above.
The target in experiment [9] is HLA-B*44:02. The experiment is described as above. The conditions noted are these: source organism: Giardia lamblia ATCC 50803.
For a further experiment, the target named is HLA-B*58:01. The experiment is described as above.
The next experiment concerns the target HLA-B*46:01. The experiment can be described thus: IEDB peptide-MHC binding, purified MHC/competitive/fluorescence; filed as Kd, often an IC50 or EC50 that approximates it; ≥ and ≤ were set here for values at or beyond the usual limits of such assays. Particulars: source organism: Giardia lamblia ATCC 50803.
Experiment [10] has as its target HLA-A*11:01. As to the kind of experiment: IEDB peptide-MHC binding, purified MHC/competitive/fluorescence; ≥ and ≤ were set here for values at or beyond the usual limits of such assays.
Experiment [11] deals with HLA-B*07:02. As to the kind of experiment: IEDB peptide-MHC binding, purified MHC/competitive/radioactivity; filed as Kd, often an IC50 or EC50 that approximates it; ≥ and ≤ were set here for values at or beyond the usual limits of such assays.
Experiment [12] addresses HLA-A*03:01. As to the kind of experiment: IEDB peptide-MHC binding, purified MHC/competitive/fluorescence; filed as Kd, often an IC50 or EC50 that approximates it; ≥ and ≤ were set here for values at or beyond the usual limits of such assays. The conditions noted are these: source organism: Yersinia bercovieri ATCC 43970.
Experiment [13] deals with HLA-A*26:01. Described as above. Particulars: source organism: Yersinia bercovieri ATCC 43970.
The target in experiment [14] is HLA-B*15:01. The description is as above. Particulars: source organism: Yersinia bercovieri ATCC 43970.
Experiment [15] addresses HLA-A*02:01. The experiment can be described thus: IEDB peptide-MHC binding, purified MHC/competitive/fluorescence; ≥ and ≤ were set here for values at or beyond the usual limits of such assays. Particulars: source organism: Zaire ebolavirus.
The target in another experiment is HLA-A*24:02. The description is as above. The conditions noted are these: source organism: Zaire ebolavirus.
In experiment [16] the target is HLA-A*02:01. The experiment can be described thus: IEDB peptide-MHC binding, purified MHC/direct/fluorescence; filed as Kd, often an IC50 or EC50 that approximates it; ≥ and ≤ were set here for values at or beyond the usual limits of such assays. The conditions noted are these: source organism: Pseudomonas aeruginosa.
Setting [17] is: source organism: Mammarenavirus lassaense.
Setting [18] is: source organism: SARS coronavirus Tor2.
Where [19] appears, read: source organism: Dengue virus 1 Brazil/97-11/1997.
[20] abbreviates: source organism: Giardia lamblia ATCC 50803.
[21] abbreviates: source organism: Zaire ebolavirus.
The mark [22] stands for this setting: source organism: Dengue virus 3 Martinique/1243/1999.
The mark [23] stands for this setting: source organism: Pseudomonas aeruginosa.

Consider LILCVTQVLM, for which, in the experiment with HLA-B*35:01, the Kd stood at 14.2 µM.

On to HDLMKQKCL, for which the Kd is at least 77.5 µM with HLA-B*18:01 (setting [17]); at least 40 µM with HLA-B*40:01 [1] (setting [17]); 1.57 µM with HLA-B*40:02 (setting [17]); at least 77.9 µM with HLA-B*44:02 [2] (setting [17]); at least 78.1 µM with HLA-B*44:03 (setting [17]); 19.1 µM with HLA-B*45:01 (setting [17]).

Take DEDDSEPVL: the Kd in the experiment with HLA-B*18:01 (setting [18]) is 5.29 µM; with HLA-B*40:01 [1] (setting [18]) it was 0.137 µM; in the experiment with HLA-B*40:02 (setting [18]), 3.17 µM; in the experiment with HLA-B*44:02 [2] (setting [18]) it was at least 38.3 µM; with HLA-B*44:03 (setting [18]) it was 15.8 µM; in the experiment with HLA-B*45:01 (setting [18]), 17.9 µM.

Regarding FSRENSLSGV, in the experiment with HLA-B*51:01 (setting [19]), the Kd amounted to 7.58 µM.

For the sequence AAFLDDNAF, the Kd with HLA-A*01:01 (setting [20]), in the experiment with HLA-A*03:01 [3] (setting [20]), in the experiment with HLA-A*11:01 [4] (setting [20]), with HLA-A*26:01 [5] (setting [20]), with HLA-A*31:01 (setting [20]) and with HLA-A*69:01 (setting [20]) was at least 20 µM each time. For the same sequence, the dissociation constant (Kd) with HLA-B*07:02 [6] (setting [20]) is at least 20 µM; with HLA-B*08:01 (setting [20]) it was at least 20 µM; in the experiment with HLA-B*15:01 [7] (setting [20]) it was 0.106 µM; in the experiment with HLA-B*27:05 (setting [20]) it was at least 20 µM; in the experiment with HLA-B*40:01 [8] (setting [20]) it was at least 20 µM; in the experiment with HLA-B*44:02 [9], at least 20 µM. The values for the Kd with HLA-B*58:01 (setting [20]) and with HLA-B*46:01 were at least 20 µM and 0.118 µM, respectively.

With KACLEKVQR, the IC50 in the experiment with HLA-A*11:01 [10] (setting [21]) was at least 188 µM.

On to TPTWNRKELL, for which, in the experiment with HLA-B*07:02 [11] (setting [22]), the Kd came out at 0.0182 µM.

In the experiment with HLA-A*11:01 [10] (setting [21]), EESASSGKL returned an IC50 of at least 214 µM.

For YIYDTAFKY, the values for the Kd in the experiment with HLA-A*03:01 [12], with HLA-A*26:01 [13] and in the experiment with HLA-B*15:01 [14] were 3.83 µM, 0.265 µM and 0.173 µM, respectively.

Consider IALDLVTEI, for which, in the experiment with HLA-B*51:01 (setting [22]), the equilibrium dissociation constant (Kd) worked out at 0.00152 µM.

With MGVTGILQL, the figures for the IC50 with HLA-A*02:01 [15], with HLA-A*11:01 [10] (setting [21]) and with HLA-A*24:02 were 52.9 µM, at least 73.8 µM and at least 85.2 µM, respectively.

Consider TPRSMPGTRR, for which the Kd in the experiment with HLA-B*07:02 [11] (setting [22]) was 1.14 µM.

Sequence RVLSLIGLK registered an IC50 in the experiment with HLA-A*11:01 [10] (source organism: West Nile virus) of 0.334 µM.

Turning to SPSKLASAIQ, in the experiment with HLA-B*07:02 [11] (source organism: Dengue virus 2 Jamaica/1409/1983), the Kd stood at 0.436 µM.

As to SPSPTVEESR, the Kd with HLA-B*07:02 [11] (setting [22]) was found to be 3.71 µM.

As for MGLDKGWPI, the Kd with HLA-B*51:01 (setting [19]) is at least 44.7 µM.

KPEGKVIDL: the Kd in the experiment with HLA-B*07:02 [11] (setting [19]) was determined as 0.496 µM.

With TPSMTMRCVG, the Kd in the experiment with HLA-B*07:02 [11] (setting [22]) came out at 0.048 µM.

On to GEDDDMLPW, for which the Kd in the experiment with HLA-A*01:01 (setting [23]), in the experiment with HLA-A*02:01 [16], with HLA-A*03:01 [3] (setting [23]), with HLA-A*11:01 [4] (setting [23]), with HLA-A*26:01 [5] (setting [23]) and in the experiment with HLA-A*31:01 (setting [23]) was at least 20 µM in each case. Besides, the Kd in the experiment with HLA-A*69:01 (setting [23]) is at least 20 µM; with HLA-B*07:02 [6] (setting [23]), at least 20 µM; with HLA-B*08:01 (setting [23]) it was at least 20 µM; with HLA-B*15:01 [7] (setting [23]) it was at least 20 µM; with HLA-B*27:05 (setting [23]) it was at least 20 µM; with HLA-B*40:01 [8] (setting [23]), 2.59 µM. This sequence also had a Kd with HLA-B*58:01 (setting [23]) of at least 20 µM.
